Tests used:
BSA = target: T1, BSA (UniProt P02769 25-607); experiment: Western blot, 20 μg BSA per lane, purified scFv 1:5, detection with anti-c-myc antibody
T1 construct: Control protein in the Western blot

Aβ1-42 = target: T2, Aβ1-42 (UniProt P05067 672-713); experiment: Western blot, 20 μg Aβ1-42 per lane on PVDF, purified scFv 1:5, detection with anti-c-myc antibody and HRP goat anti-mouse IgG
T2 construct: domain: Aβ1-42; Sample loaded on the Tricine SDS-PAGE gel for the Western blot (20 μg per lane); also called Aβ 42; 合成的Aβ多肽

binding result (BSA): no binding
binding result (Aβ1-42): binds
B1: E3单链抗体 (抗Aβ可溶性单链抗体) (scFv)
scFv: QVQLQESGPGLVKPSETLSLTCAVSGYSISSGYYWGWIRQPPGKGLEWIGSIYHSGSTYYNPSLKSRVTISVDTSKNQFSLKLSSVTAADTAVYYCARDLGSSVSWGQGTLVTVSSGGGGSGGGGSGGSALDIQMTQSPSSLSASVGDRVTISCRMSQGISNYLAWYQQKPGKVPKLLIYAASTLQSGVPSRFSGSGSGTDFTLTISSLQPEDVATYYCQKYNSALVTFGQGTKLEIKR
notes: Soluble scFv expressed in E. coli HB2151, purified on His-Trap, about 31 kD; also called E3scFv; E3 scFv; not shown: C-terminal tags of the pHEN2 vector, implied by His-Trap purification and detect
